± gives the standard deviation of the averaged measurements.
Assay: total protein half-life in vivo (active degradation + dilution); higher = more stable protein
[1] = E. coli NCM3722 delta-clpP delta-lon delta-hslV, growth: N-lim chemostat, doubling time 6 h
[2] = E. coli NCM3722 delta-clpP, growth: N-lim chemostat, doubling time 6 h
[3] = E. coli NCM3722 delta-hslV, growth: N-lim chemostat, doubling time 6 h
[4] = E. coli NCM3722 delta-lon, growth: N-lim chemostat, doubling time 6 h
[5] = E. coli NCM3722 delta-smpB, growth: N-lim chemostat, doubling time 6 h
[6] = wild type E. coli NCM3722, growth: C-lim chemostat, doubling time 6 h
[7] = wild type E. coli NCM3722, growth: C-lim chemostat, doubling time 12 h
[8] = wild type E. coli NCM3722, growth: N-lim chemostat, doubling time 6 h
[9] = wild type E. coli NCM3722, growth: N-lim chemostat, doubling time 12 h
[10] = wild type E. coli NCM3722, growth: P-lim chemostat, doubling time 6 h
[11] = wild type E. coli NCM3722, growth: P-lim chemostat, doubling time 12 h
[12] = wild type E. coli NCM3722, growth: C-lim chemostat, doubling time 3 h

Row | Sequence | total protein half-life in vivo [1] [h] | total protein half-life in vivo [2] [h] | total protein half-life in vivo [3] [h] | total protein half-life in vivo [4] [h] | total protein half-life in vivo [5] [h] | total protein half-life in vivo [6] [h] | total protein half-life in vivo [7] [h] | total protein half-life in vivo [8] [h] | total protein half-life in vivo [9] [h] | total protein half-life in vivo [10] [h] | total protein half-life in vivo [11] [h] | total protein half-life in vivo [12] [h]
1 | MKALHFGAGNIGRGFIGKLLADAGIQLTFADVNQVVLDALNARHSYQVHVVGETEQVDTVSGVNAVSSIGDDVVDLIAQVDLVTTAVGPVVLERIAPAIAKGQVKRKEQGNESPLNIIACENMVRGTTQLKGHVMNALPEDAKAWVEEHVGFVDSAVDRIVPPSASATNDPLEVTVETFSEWIVDKTQFKGALPNIPGMELTDNLMAFVERKLFTLNTGHAITAYLGKLAGHQTIRDAILDEKIRAVVKGAMEESGAVLIKRYGFDADKHAAYIQKILGRFENPYLKDDVERVGRQPLRKLSAGDRLIKPLLGTLEYGLPHKNLIEGIAAAMHFRSEDDPQAQELAALIADKGPQAALAQISGLDANSEVVSEAVTAYKAMQ | 5.84 ± 2 | 4.85 ± 0.21 | 5.32 ± 0.44 | 4.91 ± 0.1 | 4.6 ± 0.39 | 6.18 ± 0.63 | 10.8 ± 1.2 | 4.86 ± 0.35 | 8.39 ± 0.13 | 6.02 ± 0.068 | 11.6 ± 0.34 | –
2 | MSIKNLPADYLLAAQQGDIDKVKTCLALGVDINTCDRQGKTAITLASLYQQYACVQALIDAGADINKQDHTCLNPFLISCLNDDLTLLRIILPAKPDLNCVTRFGGVGLTPACEKGHLSIVKELLAHTEINVNQTNHVGWTPLLEAIVLNDGGIKQQAIVQLLLEHGASPHLTDKYGKTPLELARERGFEEIAQLLIAAGA | 5.2 | – | – | – | – | – | – | – | – | – | – | –
3 | MKAFWRNAALLAVSLLPFSSANALALQAKQYGDFDRYVLALSWQTGFCQSQHDRNRNERDECRLQTETTNKADFLTVHGLWPGLPKSVAARGVDERRWMRFGCATRPIPNLPEARASRMCSSPETGLSLETAAKLSEVMPGAGGRSCLERYEYAKHGACFGFDPDAYFGTMVRLNQEIKESEAGKFLADNYGKTVSRRDFDAAFAKSWGKENVKAVKLTCQGNPAYLTEIQISIKADAINAPLSANSFLPQPHPGNCGKTFVIDKAGY | 5.86 ± 0.29 | – | 6.73 ± 0.69 | 6.91 ± 0.17 | 5.96 ± 0.5 | 6.59 ± 1.8 | – | 5.72 ± 0.6 | 12.8 ± 0.28 | 5.74 ± 0.09 | – | 2.91 ± 0.23
4 | MKTDTPSLETPQAARLRRRQLIRQLLERDKTPLAILFMAAVVGTLVGLAAVAFDKGVAWLQNQRMGALVHTADNYPLLLTVAFLCSAVLAMFGYFLVRKYAPEAGGSGIPEIEGALEDQRPVRWWRVLPVKFFGGLGTLGGGMVLGREGPTVQIGGNIGRMVLDIFRLKGDEARHTLLATGAAAGLAAAFNAPLAGILFIIEEMRPQFRYTLISIKAVFIGVIMSTIMYRIFNHEVALIDVGKLSDAPLNTLWLYLILGIIFGIFGPIFNKWVLGMQDLLHRVHGGNITKWVLMGGAIGGLCGLLGFVAPATSGGGFNLIPIATAGNFSMGMLVFIFVARVITTLLCFSSGAPGGIFAPMLALGTVLGTAFGMVAVELFPQYHLEAGTFAIAGMGALLAASIRAPLTGIILVLEMTDNYQLILPMIITGLGATLLAQFTGGKPLYSAILARTLAKQEAEQLARSKAASASENT | 6.2 ± 0.78 | 6.38 | 6.54 ± 0.83 | 6.03 | 5.82 ± 0.66 | 5.8 ± 0.28 | 13.2 ± 3.7 | 6.08 ± 0.083 | 11.3 | 6.1 ± 0.11 | 11.3 ± 0.43 | –
5 | MSAQPVDIQIFGRSLRVNCPPDQRDALNQAADDLNQRLQDLKERTRVTNTEQLVFIAALNISYELAQEKAKTRDYAASMEQRIRMLQQTIEQALLEQGRITEKTNQNFE [P0ADS2] | – | > 8 | 6.14 ± 0.47 | 6.82 ± 0.47 | 5.21 ± 0.4 | 6.05 ± 0.48 | 10.5 | 4.5 ± 0.25 | 9.14 ± 1.6 | 5.16 ± 0.74 | 10.8 ± 1 | 3.87
6 | MQTQVLFEHPLNEKMRTWLRIEFLIQQLTVNLPIVDHAGALHFFRNVSELLDVFERGEVRTELLKELDRQQRKLQTWIGVPGVDQSRIEALIQQLKAAGSVLISAPRIGQFLREDRLIALVRQRLSIPGGCCSFDLPTLHIWLHLPQAQRDSQVETWIASLNPLTQALTMVLDLIRQSAPFRKQTSLNGFYQDNGGDADLLRLNLSLDSQLYPQISGHKSRFAIRFMPLDTENGQVPERLDFELACC | 6.32 ± 0.19 | 6.18 ± 0.41 | 6.06 ± 1.5 | 5.0717 ± 0.004 | 4.94 ± 0.2 | 6.55 ± 0.5 | – | 4.87 ± 1.7 | 11.4 ± 6.5 | 5.66 ± 0.3 | 12.3 ± 1.5 | 2.66 ± 0.025
7 | MKQWIAALLLMLIPGVQAAKPQKVTLMVDDVPVAQVLQALAEQEKLNLVVSPDVSGTVSLHLTDVPWKQALQTVVKSAGLITRQEGNILSVHSIAWQNNNIARQEAEQARAQANLPLENRSITLQYADAGELAKAGEKLLSAKGSMTVDKRTNRLLLRDNKTALSALEQWVAQMDLPVGQVELSAHIVTINEKSLRELGVKWTLADAQHAGGVGQVTTLGSDLSVATATTHVGFNIGRINGRLLDLELSALEQKQQLDIIASPRLLASHLQPASIKQGSEIPYQVSSGESGATSVEFKEAVLGMEVTPTVLQKGRIRLKLHISQNVPGQVLQQADGEVLAIDKQEIETQVEVKSGETLALGGIFTRKNKSGQDSVPLLGDIPWFGQLFRHDGKEDERRELVVFITPRLVSSE | 3.42 ± 1.4 | – | – | – | – | – | 6.11 | – | 4.56 | – | 4.33 | –

From the supplement of paper PMC11246515
